In patent publication US8460664 (ACADEMIA SINICA, dated 2013):

T1: P1 peptide (human)
T1 construct: Synthetic peptide
T1 peptide: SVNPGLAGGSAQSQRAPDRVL

T2: P3 peptide (human)
T2 peptide: GAGRADWPGPPELDV


Key:
[1] = target: mIgE.FcL on transfected Ramos cells (human, UniProt P01854 104-546, limits assumed); test: cell-based or functional assay
[2] = target: T1, P1 peptide; test: ELISA, 1 µg/ml antibody on coated peptide (500 ng/well)
Protocol: (§1) To explore the specificity of anti-CεmX mAbs to CεmX, the various CεmX-specific clones were then tested for reactivity with 3 synthetic peptides, representing 3 consecutive segments of CεmX, divided by a C residue located at residue #18 and a CHC segment at residues #39-41. Specifically, P1 peptide contains the last 4 amino acid residues of CH4 of Mε and first 17 amino acid residues (#1-17), namely, […] (SEQ ID NO:2), of CεmX; P2 peptide contains 20 amino acid residues #19-38, namely, […] (SEQ ID NO:3), of CεmX; P3 peptide contains the terminal 11 amino acid residues (#42-52), namely, […]_(SEQ ID NO:4), of CεmX and first 4 amino acid residues of the consecutive migis region, namely, the N-terminal extracellular region of the membrane anchor peptide of Mε chain. All peptides were synthesized at Genomics Research Center, Academia Sinica (Taipei, Taiwan). The peptides were reconstituted with PBS at a concentration of 10 mg/ml. All peptides were coated on 96-well MaxiSorp plates at 500 ng/well in 0.1M NaCO_3 (pH 9.6) at 4° C. overnight. Coated wells were blocked by 200 μl/well of 1% BSA in PBS at room temperature for 1 hour. Plates were washed three times with 200 μl/well of PBS with 0.05% Tween-20, followed by adding 100 μl of 1 μg/ml anti-CεmX mAbs to wells.

[3] = target: T3, mIgE.FcS on transfected CHO cells (human, UniProt P01854-3 104-494, limits assumed); test: flow cytometry, hybridoma supernatants
T3 construct: domain: CH2 domain through the cytoplasmic end of mεS (CH2-CM), on cells; Lacks the CεmX domain; No coreceptors are present in CHO cells; also called CHO cells expressing mIgE.FcS; mεS(CH2-CM)
T3 sequence (P01854 other isoform, or with tags, fused parts or gaps limits assumed): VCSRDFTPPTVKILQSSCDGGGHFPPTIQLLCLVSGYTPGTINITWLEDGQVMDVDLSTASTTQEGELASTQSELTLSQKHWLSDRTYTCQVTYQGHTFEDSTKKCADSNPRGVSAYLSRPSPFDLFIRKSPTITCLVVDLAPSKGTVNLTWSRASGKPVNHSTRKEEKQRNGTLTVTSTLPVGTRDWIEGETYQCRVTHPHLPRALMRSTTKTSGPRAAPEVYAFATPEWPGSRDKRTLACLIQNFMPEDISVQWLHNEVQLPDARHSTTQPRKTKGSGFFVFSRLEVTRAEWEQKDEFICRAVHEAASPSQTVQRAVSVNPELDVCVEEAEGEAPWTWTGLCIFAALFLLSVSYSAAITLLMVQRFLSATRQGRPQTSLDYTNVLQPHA
Source text: (§2) We further tested the ability of various CεmX-specific monoclonal antibodies to bind to CHO and Ramos cell lines that were transfected with either recombinant DNA encoding mε_{L(CH2-CM)} or mε_{S(CH2-CM)}. […] The transfected two Ramos cell lines respectively produced mIgE.Fc_L or mIgE.Fc_S, both of which form complexes with their native coreceptors. To investigate the binding of anti-CεmX mAbs to native CεmX, CHO or Ramos cells expressing mIgE.Fc_L or mIgE.Fc_S were resuspended in FACS buffer [PBS, 1% FBS, 0.1% sodium azide, and 2 mM EDTA (pH 8.0)] at a cell density of 10^7 cells/ml. 10^6 cells were then incubated for 30 min on ice with 100 μl of hybridoma supernatants, followed by washing with FACS buffer. Bound antibodies were detected by incubation for 30 minutes on ice with FITC-labeled rabbit F(ab')_2 fragment specific for mouse IgG (AbD Secrotec), followed by washing twice with FACS buffer prior to analysis. Flow cytometry experiments were performed using a FACSCanto II flow cytometer (BD Bioscience) and analyzed using FCSExpress software (De Novo Software).

[4] = target: T4, mIgE.FcS on transfected Ramos cells (human, UniProt P01854-3 104-494, limits assumed); test: flow cytometry, hybridoma supernatants
T4 construct: domain: CH2 domain through the cytoplasmic end of mεS (CH2-CM), on cells; Lacks the CεmX domain; It forms complexes with the native coreceptors of Ramos cells; also called Ramos cells expressing mIgE.FcS; mεS(CH2-CM)
T4 sequence (P01854 other isoform, or with tags, fused parts or gaps limits assumed): as above
Source text: as §2

[5] = target: T2, P3 peptide; test: ELISA on coated peptide (500 ng/well)
Protocol: as §1

mIgE.FcL on transfected Ramos cells, sequence (P01854 104-546 limits assumed): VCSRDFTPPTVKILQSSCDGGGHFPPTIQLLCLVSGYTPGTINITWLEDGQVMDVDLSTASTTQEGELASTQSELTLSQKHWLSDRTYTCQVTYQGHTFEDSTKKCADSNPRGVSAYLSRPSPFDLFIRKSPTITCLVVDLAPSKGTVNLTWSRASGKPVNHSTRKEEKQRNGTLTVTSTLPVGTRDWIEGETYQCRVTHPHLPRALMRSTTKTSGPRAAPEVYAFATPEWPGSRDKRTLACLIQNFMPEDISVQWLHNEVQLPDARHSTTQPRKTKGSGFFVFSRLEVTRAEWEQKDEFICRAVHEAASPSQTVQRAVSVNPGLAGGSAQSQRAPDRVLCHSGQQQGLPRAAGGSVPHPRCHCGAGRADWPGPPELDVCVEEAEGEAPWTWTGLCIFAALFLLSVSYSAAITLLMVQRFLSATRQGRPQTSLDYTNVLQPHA

| Binder | ADCC, specific lysis at an E/T ratio of 50 (antibody 1 µg/ml, PBMC effectors) [1] [%] | binding result [2] | binding result [3] | binding result [4] | binding result [5] |
| --- | --- | --- | --- | --- | --- |
| chimeric 4B12 (antibody, V domains shown) VH: DVQLQESGPGLVKPSQSLSLTCTVTGYSITSDYAWNWIRQFPGNKLEWMGSISYSGITGYNPSLKSRISVTRDTSKNQFFLQLNSVTTEDTATYYCARMGYDGLAYWGHGTTVTVSA VL: DVLMTQTPLSLPVSLGDQASISCRSSQSIVHSNGNTYLEWYLQKPGQSPKLLIYKVSNRFSGVPDRFSGSGSGTDFTFKISRVEAEDLGVYYCFQGSHVPPTFGGGTKLEIKR | ≤ 60 | – | – | – | – |
| mouse monoclonal antibody 4B12 (antibody, V domains shown, Mouse hybridoma IgG, detected with anti-mouse IgG; also called parental mouse 4B12) VH: DVQLQESGPGLVKPSQSLSLTCTVTGYSITSDYAWNWIRQFPGNKLEWMGSISYSGITGYNPSLKSRISVTRDTSKNQFFLQLNSVTTEDTATYYCARMGYDGLAYWGHGTTVTVSA VL: DVLMTQTPLSLPVSLGDQASISCRSSQSIVHSNGNTYLEWYLQKPGQSPKLLIYKVSNRFSGVPDRFSGSGSGTDFTFKISRVEAEDLGVYYCFQGSHVPPTFGGGTKLEIKR | – | binds | no binding | no binding | no binding (tested: 1 µg/ml) |
